Data: paper PMC7979924 (2021)

T1: Lin28-CSD (32–136 aa.) (Homo sapiens (Human), UniProt Q9H9Z2)
T1 chain: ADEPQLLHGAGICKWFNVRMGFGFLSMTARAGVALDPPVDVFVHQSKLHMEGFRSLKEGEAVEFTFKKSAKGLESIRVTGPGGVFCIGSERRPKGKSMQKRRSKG


Experiments:
YB-1-CSD (1–180 aa.) = YB-1-CSD (1–180 aa.) (Homo sapiens (Human), UniProt P67809); experiment: EMSA; in presence of ssDNA (M13, stem-loop or C20); tests mixing/cooperative co-association on nucleic acid, not direct binding
Lin28-CSD (32–136 aa.) = target: T1, Lin28-CSD (32–136 aa.); experiment: NMR 1H-15N HSQC (peak heights); in presence of 20-nt poly(C) ssDNA; tests co-association on nucleic acid, not direct protein-protein binding

YB-1-CSD (1–180 aa.), sequence (P67809 1-180): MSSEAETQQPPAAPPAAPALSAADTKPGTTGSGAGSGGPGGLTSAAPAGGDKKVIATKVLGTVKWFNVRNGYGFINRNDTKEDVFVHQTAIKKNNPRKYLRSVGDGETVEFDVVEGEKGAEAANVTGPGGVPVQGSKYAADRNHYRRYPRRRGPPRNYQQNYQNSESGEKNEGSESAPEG

binding result (YB-1-CSD (1–180 aa.)) | binding result (Lin28-CSD (32–136 aa.)) | Binder
no binding | – | TDP43 (RRM 1–2, 101–277aa.) (protein) QKTSDLIVLGLPWKTTEQDLKEYFSTFGEVLMVQVKKDLKTGHSKGFGFVRFTEYETQVKVMSQRHMIDGRWCDCKLPNSKQSQDEPLRSRKVFVGRCTEDMTEDELREFFSQYGDVMDVFIPKPFRAFAFVTFADDQIAQSLCGEDLIIKGISVHISNAEPKHNSNRQLERSGRFG
no binding | – | FUS (RRM, 165–385aa.) (protein) SGGGGGGGGGGNYGQDQSSMSSGGGSGGGYGNQDQSGGGGSGGYGQQDRGGRGRGGSGGGGGGGGGGYNRSSGGYEPRGRGGGRGGRGGMGGSDRGGFNKFGGPRDQGSRHDSEQDNSDNNTIFVQGLGENVTIESVADYFKQIGIIKTNKKTGQPMINLYTDRETGKLKGEATVSFDDPPSAKAAIDWFDGKEFSGNPIKVSFATRRADFNRGGGNGRGG
– | no binding | TDP-43 RRM2 (176–277aa.) (protein) KLPNSKQSQDEPLRSRKVFVGRCTEDMTEDELREFFSQYGDVMDVFIPKPFRAFAFVTFADDQIAQSLCGEDLIIKGISVHISNAEPKHNSNRQLERSGRFG
